For the assay, the target named is NKG2D receptor on primary human NK cells (human (endogenous in primary NK cells)) (UniProt P26718).
UniProt P26718, sequence (P26718 whole entry): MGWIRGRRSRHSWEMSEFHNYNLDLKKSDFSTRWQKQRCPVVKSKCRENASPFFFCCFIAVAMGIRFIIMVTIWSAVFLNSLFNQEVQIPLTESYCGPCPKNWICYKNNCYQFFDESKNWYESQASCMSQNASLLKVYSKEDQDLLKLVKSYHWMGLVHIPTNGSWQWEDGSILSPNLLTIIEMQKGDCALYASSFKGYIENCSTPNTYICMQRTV

For the substance “Full-length human MICA*002 on C1R-MICA*002 cells (from UniProt Q29983 24-383) (ligand)”, the NK cell cytolytic activity (7-AAD uptake of CD56- target cells), fresh NK cells with target cells 4 h at 10 to 1 effector to target ratio; parental C1R control approximately 15% was 40%.

The values are drawn from paper PMC6685158.
